System: Escherichia coli TOP10
Experiment: shrunken log2 fold change of peptide-encoding DNA abundance (4.5 h post-induction vs induction); higher = less antimicrobial activity (less host growth inhibition)
Conditions: time post-induction: 4.5 h; library: site-saturation at positions 5, 18, 19, 20
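Further: peptides expressed intracellularly from a pBAD plasmid library in pooled LB shake-flask culture, induced with 0.3% L-arabinose, DNA abundance read by NGS, three biological replicates, DESeq2 with apeglm shrinkage.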

With RRIRNRPPRLPRPRPRPLFLPRP the “shrunken log2 fold change” value was -0.547.
In the case of RRIRPRPPRLPRPRPRPPIAPRP, the “shrunken log2 fold change” value is reported as 0.27.
In the case of RRIRIRPPRLPRPRPRPRADPRP, the “shrunken log2 fold change” value is reported as 0.0888.
For RRIRYRPPRLPRPRPRPDLMPRP, the “shrunken log2 fold change” value was -0.107.
For RRIRSRPPRLPRPRPRPHKSPRP, the “shrunken log2 fold change” value was -0.414.
For RRIRLRPPRLPRPRPRPHHLPRP, the “shrunken log2 fold change” value was -0.24.
RRIRHRPPRLPRPRPRPLTSPRP was tested, and the “shrunken log2 fold change” value was -0.246.
In the case of RRIRFRPPRLPRPRPRPGYNPRP, the “shrunken log2 fold change” value is reported as -0.332.
RRIRFRPPRLPRPRPRPICVPRP was tested, and the “shrunken log2 fold change” value was -0.161.
With RRIRIRPPRLPRPRPRPAMAPRP the “shrunken log2 fold change” value was -0.237.
In the case of RRIRKRPPRLPRPRPRPGDSPRP, the “shrunken log2 fold change” value is reported as 0.163.
For RRIRFRPPRLPRPRPRPSAHPRP, the “shrunken log2 fold change” value was -0.352.
In the case of RRIRKRPPRLPRPRPRPEIYPRP, the “shrunken log2 fold change” value is reported as -0.00723.
For RRIRARPPRLPRPRPRPEYFPRP, the “shrunken log2 fold change” value was 0.188.
With RRIRHRPPRLPRPRPRPKSNPRP the “shrunken log2 fold change” value was -0.216.
RRIRLRPPRLPRPRPRPFRLPRP was tested, and the “shrunken log2 fold change” value was -0.0872.
With RRIRWRPPRLPRPRPRPQAWPRP the “shrunken log2 fold change” value was 0.23.
RRIRPRPPRLPRPRPRPKLIPRP was tested, and the “shrunken log2 fold change” value was -0.0783.
In the case of RRIRWRPPRLPRPRPRPAFEPRP, the “shrunken log2 fold change” value is reported as 0.183.
RRIRVRPPRLPRPRPRPWDTPRP was tested, and the “shrunken log2 fold change” value was 0.00866.
For RRIRDRPPRLPRPRPRPTHKPRP, the “shrunken log2 fold change” value was -0.0994.
With RRIRDRPPRLPRPRPRPYYCPRP the “shrunken log2 fold change” value was 0.0391.
RRIRMRPPRLPRPRPRPDEQPRP was tested, and the “shrunken log2 fold change” value was 0.0522.
In the case of RRIRLRPPRLPRPRPRPHGDPRP, the “shrunken log2 fold change” value is reported as -0.0331.
With RRIRSRPPRLPRPRPRPLMYPRP the “shrunken log2 fold change” value was -0.197.
In the case of RRIRPRPPRLPRPRPRPSIMPRP, the “shrunken log2 fold change” value is reported as -0.552.
RRIRFRPPRLPRPRPRPFYWPRP was tested, and the “shrunken log2 fold change” value was -0.217.
RRIRSRPPRLPRPRPRPCDSPRP was tested, and the “shrunken log2 fold change” value was -0.207.
In the case of RRIRCRPPRLPRPRPRPMDCPRP, the “shrunken log2 fold change” value is reported as -0.0376.
With RRIRNRPPRLPRPRPRPRQLPRP the “shrunken log2 fold change” value was 0.244.
For RRIRNRPPRLPRPRPRPATSPRP, the “shrunken log2 fold change” value was -0.214.
For RRIRERPPRLPRPRPRPQTEPRP, the “shrunken log2 fold change” value was -0.0317.
With RRIRYRPPRLPRPRPRPYEHPRP the “shrunken log2 fold change” value was -0.0505.
For RRIRWRPPRLPRPRPRPNRGPRP, the “shrunken log2 fold change” value was 0.172.
With RRIRVRPPRLPRPRPRPGSEPRP the “shrunken log2 fold change” value was 0.168.
RRIRVRPPRLPRPRPRPSFWPRP was tested, and the “shrunken log2 fold change” value was -0.0205.
For RRIRHRPPRLPRPRPRPVGLPRP, the “shrunken log2 fold change” value was 0.119.
For RRIRKRPPRLPRPRPRPPISPRP, the “shrunken log2 fold change” value was 0.22.
With RRIRCRPPRLPRPRPRPKGGPRP the “shrunken log2 fold change” value was 0.094.
In the case of RRIRHRPPRLPRPRPRPSILPRP, the “shrunken log2 fold change” value is reported as -0.464.
For RRIRLRPPRLPRPRPRPACCPRP, the “shrunken log2 fold change” value was 0.0218.
With RRIRKRPPRLPRPRPRPTMWPRP the “shrunken log2 fold change” value was 0.643.
For RRIRKRPPRLPRPRPRPWLCPRP, the “shrunken log2 fold change” value was 0.466.
For RRIRSRPPRLPRPRPRPDNVPRP, the “shrunken log2 fold change” value was 4.24.
In the case of RRIRVRPPRLPRPRPRPLQMPRP, the “shrunken log2 fold change” value is reported as 0.312.
In the case of RRIRARPPRLPRPRPRPCIIPRP, the “shrunken log2 fold change” value is reported as -0.076.
With RRIRARPPRLPRPRPRPTESPRP the “shrunken log2 fold change” value was 0.659.
For RRIRGRPPRLPRPRPRPYVLPRP, the “shrunken log2 fold change” value was -0.114.
With RRIRGRPPRLPRPRPRPSTSPRP the “shrunken log2 fold change” value was 0.315.
In the case of RRIRPRPPRLPRPRPRPKMRPRP, the “shrunken log2 fold change” value is reported as 0.903.
For RRIRLRPPRLPRPRPRPWPWPRP, the “shrunken log2 fold change” value was 0.0352.
For RRIRIRPPRLPRPRPRPMETPRP, the “shrunken log2 fold change” value was -0.0335.
For RRIRWRPPRLPRPRPRPRENPRP, the “shrunken log2 fold change” value was 0.707.
For RRIRVRPPRLPRPRPRPGPDPRP, the “shrunken log2 fold change” value was 0.465.
RRIRGRPPRLPRPRPRPHDRPRP was tested, and the “shrunken log2 fold change” value was -0.0826.
In the case of RRIRPRPPRLPRPRPRPHRGPRP, the “shrunken log2 fold change” value is reported as -0.0385.
RRIRSRPPRLPRPRPRPCDGPRP was tested, and the “shrunken log2 fold change” value was 0.0333.
With RRIRHRPPRLPRPRPRPMHVPRP the “shrunken log2 fold change” value was -0.0591.
For RRIRRRPPRLPRPRPRPEDDPRP, the “shrunken log2 fold change” value was 1.11.
For RRIRYRPPRLPRPRPRPPKWPRP, the “shrunken log2 fold change” value was 0.223.
With RRIRYRPPRLPRPRPRPSSDPRP the “shrunken log2 fold change” value was -0.218.
For RRIRLRPPRLPRPRPRPWRWPRP, the “shrunken log2 fold change” value was 0.0385.
In the case of RRIRDRPPRLPRPRPRPHVQPRP, the “shrunken log2 fold change” value is reported as -0.0912.
For RRIRGRPPRLPRPRPRPWDPPRP, the “shrunken log2 fold change” value was -0.11.
RRIRLRPPRLPRPRPRPFCYPRP was tested, and the “shrunken log2 fold change” value was -0.465.
RRIRARPPRLPRPRPRPSSWPRP was tested, and the “shrunken log2 fold change” value was 0.158.
In the case of RRIRVRPPRLPRPRPRPKFPPRP, the “shrunken log2 fold change” value is reported as 0.102.
RRIRIRPPRLPRPRPRPHWMPRP was tested, and the “shrunken log2 fold change” value was -1.57.
For RRIRKRPPRLPRPRPRPQSWPRP, the “shrunken log2 fold change” value was 0.451.
In the case of RRIRMRPPRLPRPRPRPYTRPRP, the “shrunken log2 fold change” value is reported as -0.013.
With RRIRRRPPRLPRPRPRPLYFPRP the “shrunken log2 fold change” value was -0.115.
With RRIRTRPPRLPRPRPRPIMVPRP the “shrunken log2 fold change” value was -0.198.
In the case of RRIRMRPPRLPRPRPRPKWMPRP, the “shrunken log2 fold change” value is reported as 0.21.
In the case of RRIRMRPPRLPRPRPRPTDDPRP, the “shrunken log2 fold change” value is reported as 0.637.
For RRIRYRPPRLPRPRPRPTGSPRP, the “shrunken log2 fold change” value was 0.0529.
In the case of RRIRARPPRLPRPRPRPADHPRP, the “shrunken log2 fold change” value is reported as 0.0196.
With RRIRERPPRLPRPRPRPQWFPRP the “shrunken log2 fold change” value was -0.166.
With RRIRFRPPRLPRPRPRPCRRPRP the “shrunken log2 fold change” value was 0.122.
For RRIRQRPPRLPRPRPRPCKPPRP, the “shrunken log2 fold change” value was -0.207.
With RRIRERPPRLPRPRPRPCDHPRP the “shrunken log2 fold change” value was -0.0479.
RRIRDRPPRLPRPRPRPMCPPRP was tested, and the “shrunken log2 fold change” value was 0.00942.
With RRIRRRPPRLPRPRPRPKWLPRP the “shrunken log2 fold change” value was 0.269.
With RRIRPRPPRLPRPRPRPLGPPRP the “shrunken log2 fold change” value was 0.153.
With RRIRKRPPRLPRPRPRPRTWPRP the “shrunken log2 fold change” value was 0.124.
RRIRVRPPRLPRPRPRPCCKPRP was tested, and the “shrunken log2 fold change” value was 0.905.
In the case of RRIRQRPPRLPRPRPRPTSWPRP, the “shrunken log2 fold change” value is reported as -0.00172.
For RRIRERPPRLPRPRPRPKTLPRP, the “shrunken log2 fold change” value was -0.185.
For RRIRDRPPRLPRPRPRPLKEPRP, the “shrunken log2 fold change” value was -0.277.
With RRIRWRPPRLPRPRPRPWEKPRP the “shrunken log2 fold change” value was 0.624.
With RRIRMRPPRLPRPRPRPEGMPRP the “shrunken log2 fold change” value was 2.24.
For RRIRKRPPRLPRPRPRPERPPRP, the “shrunken log2 fold change” value was 0.407.
For RRIRIRPPRLPRPRPRPPNGPRP, the “shrunken log2 fold change” value was -0.291.
With RRIRQRPPRLPRPRPRPCQQPRP the “shrunken log2 fold change” value was -0.0108.
With RRIRRRPPRLPRPRPRPSLHPRP the “shrunken log2 fold change” value was 0.114.
RRIRERPPRLPRPRPRPVPAPRP was tested, and the “shrunken log2 fold change” value was 0.224.
For RRIRERPPRLPRPRPRPICSPRP, the “shrunken log2 fold change” value was -0.0316.
RRIRFRPPRLPRPRPRPMLIPRP was tested, and the “shrunken log2 fold change” value was -0.217.
In the case of RRIRCRPPRLPRPRPRPDYNPRP, the “shrunken log2 fold change” value is reported as -0.571.
In the case of RRIRVRPPRLPRPRPRPAEDPRP, the “shrunken log2 fold change” value is reported as 0.0101.
For RRIRGRPPRLPRPRPRPDHDPRP, the “shrunken log2 fold change” value was 0.301.
RRIRNRPPRLPRPRPRPEPDPRP was tested, and the “shrunken log2 fold change” value was 0.0698.
RRIRNRPPRLPRPRPRPYYHPRP was tested, and the “shrunken log2 fold change” value was -0.781.
With RRIRLRPPRLPRPRPRPSYDPRP the “shrunken log2 fold change” value was -0.292.
RRIRMRPPRLPRPRPRPHEYPRP was tested, and the “shrunken log2 fold change” value was -0.308.
RRIRPRPPRLPRPRPRPEEPPRP was tested, and the “shrunken log2 fold change” value was 0.437.
RRIRLRPPRLPRPRPRPSWSPRP was tested, and the “shrunken log2 fold change” value was 0.0192.
In the case of RRIRARPPRLPRPRPRPQWCPRP, the “shrunken log2 fold change” value is reported as -0.0868.
For RRIRFRPPRLPRPRPRPAIRPRP, the “shrunken log2 fold change” value was -0.32.
RRIRARPPRLPRPRPRPIMQPRP was tested, and the “shrunken log2 fold change” value was -0.0531.
With RRIRWRPPRLPRPRPRPNWSPRP the “shrunken log2 fold change” value was -0.0695.
With RRIRSRPPRLPRPRPRPFWMPRP the “shrunken log2 fold change” value was -0.293.
For RRIRGRPPRLPRPRPRPQQMPRP, the “shrunken log2 fold change” value was 0.287.
For RRIRVRPPRLPRPRPRPPGVPRP, the “shrunken log2 fold change” value was 0.216.
With RRIRDRPPRLPRPRPRPNTAPRP the “shrunken log2 fold change” value was -0.0636.
For RRIRYRPPRLPRPRPRPLVPPRP, the “shrunken log2 fold change” value was -0.539.
In the case of RRIRSRPPRLPRPRPRPCLCPRP, the “shrunken log2 fold change” value is reported as -1.28.
RRIRFRPPRLPRPRPRPLDYPRP was tested, and the “shrunken log2 fold change” value was -0.0121.
RRIRDRPPRLPRPRPRPCMVPRP was tested, and the “shrunken log2 fold change” value was 0.0359.
RRIRARPPRLPRPRPRPRREPRP was tested, and the “shrunken log2 fold change” value was 0.631.
With RRIRKRPPRLPRPRPRPVMLPRP the “shrunken log2 fold change” value was 0.109.
RRIRGRPPRLPRPRPRPIFRPRP was tested, and the “shrunken log2 fold change” value was 0.0691.
For RRIRRRPPRLPRPRPRPVLGPRP, the “shrunken log2 fold change” value was 0.528.
In the case of RRIRCRPPRLPRPRPRPPDNPRP, the “shrunken log2 fold change” value is reported as 0.0386.
In the case of RRIRERPPRLPRPRPRPTQVPRP, the “shrunken log2 fold change” value is reported as -0.0607.
For RRIRCRPPRLPRPRPRPQKVPRP, the “shrunken log2 fold change” value was -0.127.

— the supplement of paper PMC9112550, “Optimization of the antimicrobial peptide Bac7 by deep mutational scanning” (BMC Biology, 2022)
